Results from the supplement of paper PMC10567573.

B1: CCDC6 (parent)
chain: FTPPTSLTRAGMSYYNSPGLHVQH

Variants of: B1
Assay: protein stability index of a GFP-peptide fusion (GPS, HEK-293T) (PSI 1-6); higher = more stable
Settings: c terminus: a fixed tail appended
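Also: lentivirally expressed fusions sorted by FACS into six bins by GFP to DsRed ratio, PSI derived from sequencing read proportions per bin multiplied by bin number.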

Variant | protein stability index
FTPPTSLTRAGMSYYVSPGLHVQH [N16V] | 2.32
FTPPTSLTRAGMSYYSSPGLHVQH [N16S] | 1.65
FTPPTSLTRAGMSYYYSPGLHVQH [N16Y] | 1.77
FTPPTSLTRAGMSYYTSPGLHVQH [N16T] | 2.17
FTPPTSLTRAGMSYYNRPGLHVQH [S17R] | 1.76
FTPPTSLTRAGMSYYNAPGLHVQH [S17A] | 2.94
FTPPTSLTRAGMSYYNDPGLHVQH [S17D] | 2.09
FTPPTSLTRAGMSYYNTPGLHVQH [S17T] | 1.64
FTPPTSLTRAGMSYYNMPGLHVQH [S17M] | 1.32
FTPPTSLTRAGMSYYNGPGLHVQH [S17G] | 2
FTPPTSLTRAGMSYYNKPGLHVQH [S17K] | 2.04
FTPPTSLTRAGMSYYNWPGLHVQH [S17W] | 2.48
FTPPTSLTRAGMSYYNCPGLHVQH [S17C] | 1.24
FTPPTSLTRAGMSYYNNPGLHVQH [S17N] | 1.24
FTPPTSLTRAGMSYYNFPGLHVQH [S17F] | 2.95
FTPPTSLTRAGMSYYNIPGLHVQH [S17I] | 1.7
FTPPTSLTRAGMSYYNHPGLHVQH [S17H] | 1.83
FTPPTSLTRAGMSYYNVPGLHVQH [S17V] | 1.86
FTPPTSLTRAGMSYYNYPGLHVQH [S17Y] | 1.68
FTPPTSLTRAGMSYYNEPGLHVQH [S17E] | 1.93
FTPPTSLTRAGMSYYNLPGLHVQH [S17L] | 1.78
FTPPTSLTRAGMSYYNQPGLHVQH [S17Q] | 1.57
FTPPTSLTRAGMSYYNSMGLHVQH [P18M] | 1.73
FTPPTSLTRAGMSYYNSYGLHVQH [P18Y] | 2.87

Variant | protein stability index
FTPPTSLTRAGMSYYNSHGLHVQH [P18H] | 1.38
FTPPTSLTRAGMSYYNSWGLHVQH [P18W] | 2.62
FTPPTSLTRAGMSYYNSLGLHVQH [P18L] | 1.22
FTPPTSLTRAGMSYYNSVGLHVQH [P18V] | 2.27
FTPPTSLTRAGMSYYNSEGLHVQH [P18E] | 2.52
FTPPTSLTRAGMSYYNSFGLHVQH [P18F] | 1.25
FTPPTSLTRAGMSYYNSRGLHVQH [P18R] | 1.95
FTPPTSLTRAGMSYYNSQGLHVQH [P18Q] | 2.16
FTPPTSLTRAGMSYYNSCGLHVQH [P18C] | 1.21
FTPPTSLTRAGMSYYNSIGLHVQH [P18I] | 2.06
FTPPTSLTRAGMSYYNSSGLHVQH [P18S] | 1.87
FTPPTSLTRAGMSYYNSGGLHVQH [P18G] | 2.05
FTPPTSLTRAGMSYYNSKGLHVQH [P18K] | 2.43
FTPPTSLTRAGMSYYNSTGLHVQH [P18T] | 2.11
FTPPTSLTRAGMSYYNSDGLHVQH [P18D] | 1.5
FTPPTSLTRAGMSYYNSAGLHVQH [P18A] | 2.28
FTPPTSLTRAGMSYYNSNGLHVQH [P18N] | 1.78
FTPPTSLTRAGMSYYNSPKLHVQH [G19K] | 2.27
FTPPTSLTRAGMSYYNSPQLHVQH [G19Q] | 2.87
FTPPTSLTRAGMSYYNSPRLHVQH [G19R] | 2.13
FTPPTSLTRAGMSYYNSPILHVQH [G19I] | 1.56
FTPPTSLTRAGMSYYNSPYLHVQH [G19Y] | 1.96
FTPPTSLTRAGMSYYNSPFLHVQH [G19F] | 2.45
FTPPTSLTRAGMSYYNSPLLHVQH [G19L] | 1.66

Variant | protein stability index
FTPPTSLTRAGMSYYNSPCLHVQH [G19C] | 1.98
FTPPTSLTRAGMSYYNSPNLHVQH [G19N] | 2.09
FTPPTSLTRAGMSYYNSPELHVQH [G19E] | 2.1
FTPPTSLTRAGMSYYNSPSLHVQH [G19S] | 1.73
FTPPTSLTRAGMSYYNSPHLHVQH [G19H] | 1.96
FTPPTSLTRAGMSYYNSPMLHVQH [G19M] | 2.08
FTPPTSLTRAGMSYYNSPWLHVQH [G19W] | 1.8
FTPPTSLTRAGMSYYNSPTLHVQH [G19T] | 1.86
FTPPTSLTRAGMSYYNSPALHVQH [G19A] | 1.98
FTPPTSLTRAGMSYYNSPVLHVQH [G19V] | 3.1
FTPPTSLTRAGMSYYNSPDLHVQH [G19D] | 2.22
FTPPTSLTRAGMSYYNSPGLAVQH [H21A] | 2.11
FTPPTSLTRAGMSYYNSPGLSVQH [H21S] | 2.13
FTPPTSLTRAGMSYYNSPGLRVQH [H21R] | 1.75
FTPPTSLTRAGMSYYNSPGLNVQH [H21N] | 1.97
FTPPTSLTRAGMSYYNSPGLQVQH [H21Q] | 2.54
FTPPTSLTRAGMSYYNSPGLPVQH [H21P] | 1.76
FTPPTSLTRAGMSYYNSPGLCVQH [H21C] | 1.81
FTPPTSLTRAGMSYYNSPGLGVQH [H21G] | 2.2
FTPPTSLTRAGMSYYNSPGLTVQH [H21T] | 1.91
FTPPTSLTRAGMSYYNSPGLDVQH [H21D] | 1.47
FTPPTSLTRAGMSYYNSPGLMVQH [H21M] | 1.6
FTPPTSLTRAGMSYYNSPGLLVQH [H21L] | 1.81
FTPPTSLTRAGMSYYNSPGLFVQH [H21F] | 1.61

Variant | protein stability index
FTPPTSLTRAGMSYYNSPGLIVQH [H21I] | 1.61
FTPPTSLTRAGMSYYNSPGLKVQH [H21K] | 1.68
FTPPTSLTRAGMSYYNSPGLEVQH [H21E] | 2.75
FTPPTSLTRAGMSYYNSPGQHVQH [L20Q] | 2.69
FTPPTSLTRAGMSYYNSPGHHVQH [L20H] | 1.72
FTPPTSLTRAGMSYYNSPGAHVQH [L20A] | 2.14
FTPPTSLTRAGMSYYNSPGKHVQH [L20K] | 2.25
FTPPTSLTRAGMSYYNSPGNHVQH [L20N] | 2.4
FTPPTSLTRAGMSYYNSPGDHVQH [L20D] | 2.02
FTPPTSLTRAGMSYYNSPGYHVQH [L20Y] | 1.51
FTPPTSLTRAGMSYYNSPGFHVQH [L20F] | 1.72
FTPPTSLTRAGMSYYNSPGEHVQH [L20E] | 2.27
FTPPTSLTRAGMSYYNSPGMHVQH [L20M] | 1.8
FTPPTSLTRAGMSYYNSPGPHVQH [L20P] | 1.67
FTPPTSLTRAGMSYYNSPGWHVQH [L20W] | 2.79
FTPPTSLTRAGMSYYNSPGTHVQH [L20T] | 2.35
FTPPTSLTRAGMSYYNSPGRHVQH [L20R] | 2.62
FTPPTSLTRAGMSYYNSPGCHVQH [L20C] | 1.68
FTPPTSLTRAGMSYYNSPGVHVQH [L20V] | 2.02
FTPPTSLTRAGMSYYNSPGSHVQH [L20S] | 1.84
FTPPTSLTRAGMSYYNSPGGHVQH [L20G] | 2.93
FTPPTSLTRAGMSYYNSPGIHVQH [L20I] | 2.36
